Test results reported in paper doi:10.1101/188995 (bioRxiv, 2018).

Target: the molecule itself
Experiment: negative-stain transmission electron microscopy

B1: recombinant B. subtilis TasA(28-261), fibre-forming (natural protein, B. subtilis NCIB3610, UniProt P54507 28-261, looked up)
chain: AFNDIKSKDATFASGTLDLSAKENSASVNLSNLKPGDKLTKDFQFENNGSLAIKEVLMALNYGDFKANGGSNTSPEDFLSQFEVTLLTVGKEGGNGYPKNIILDDANLKDLYLMSAKNDAAAAEKIKKQIDPKFLNASGKVNVATIDGKTAPEYDGVPKTPTDFDQVQMEIQFKDDKTKDEKGLMVQNKYQGNSIKLQFSFEATQWNGLTIKKDHTDKDGYVKENEKAHSEDKN
- binding result: binds
